Molecular target: T1, FcγRIa extracellular domain with C-terminal His tag (human, UniProt P12314 16-292)
T1 construct: extracellular domain; also called FcgRI; CD64; not shown: His tag at the C terminus
Assay: SPR Biacore, relative FcγRIa binding vs GpH7-B3/GpL16-k0

T1 sequence (P12314 16-292): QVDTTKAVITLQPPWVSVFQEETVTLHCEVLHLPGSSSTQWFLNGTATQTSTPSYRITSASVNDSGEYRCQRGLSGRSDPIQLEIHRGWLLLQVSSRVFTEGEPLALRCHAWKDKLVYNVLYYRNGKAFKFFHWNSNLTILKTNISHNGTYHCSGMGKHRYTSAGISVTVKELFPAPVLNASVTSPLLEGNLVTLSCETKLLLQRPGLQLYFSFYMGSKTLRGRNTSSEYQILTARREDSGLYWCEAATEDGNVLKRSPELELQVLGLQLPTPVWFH

Ho/Con_1a | Binder
106 % of HoCon Ab (=100) | GpH7-B3 variant S267_09D/GpL16-k0 (antibody, human IgG1, kappa, mutation in both H chains; also called Ho Ab S267_09D; S267D) heavy: not shown light: DIVMTQSPLSLPVTPGEPASISCQASESLVHSNRNTYLHWYLQKPGQSPQLLIYKVSNRFSGVPDRFSGSGSGTDFTLKISRVEAEDVGVYYCSQNTHVPPTFGQGTKVEIERTVAAPSVFIFPPSDEQLKSGTASVVCLLNNFYPREAKVQWKVDNALQSGNSQESVTEQDSKDSTYSLSSTLTLSKADYEKHKVYACEVTHQGLSSPVTKSFNRGEC
103 % of HoCon Ab (=100) | GpH7-B3 variant S298_01G/GpL16-k0 (antibody, human IgG1, kappa, mutation in both H chains; also called Ho Ab S298_01G; S298G) heavy: not shown light: DIVMTQSPLSLPVTPGEPASISCQASESLVHSNRNTYLHWYLQKPGQSPQLLIYKVSNRFSGVPDRFSGSGSGTDFTLKISRVEAEDVGVYYCSQNTHVPPTFGQGTKVEIERTVAAPSVFIFPPSDEQLKSGTASVVCLLNNFYPREAKVQWKVDNALQSGNSQESVTEQDSKDSTYSLSSTLTLSKADYEKHKVYACEVTHQGLSSPVTKSFNRGEC
98.2 % of HoCon Ab (=100) | GpH7-B3 variant S267_16H/GpL16-k0 (antibody, human IgG1, kappa, mutation in both H chains; also called Ho Ab S267_16H; S267H) heavy: not shown light: DIVMTQSPLSLPVTPGEPASISCQASESLVHSNRNTYLHWYLQKPGQSPQLLIYKVSNRFSGVPDRFSGSGSGTDFTLKISRVEAEDVGVYYCSQNTHVPPTFGQGTKVEIERTVAAPSVFIFPPSDEQLKSGTASVVCLLNNFYPREAKVQWKVDNALQSGNSQESVTEQDSKDSTYSLSSTLTLSKADYEKHKVYACEVTHQGLSSPVTKSFNRGEC
106 % of HoCon Ab (=100) | GpH7-B3 variant S298_03V/GpL16-k0 (antibody, human IgG1, kappa, mutation in both H chains; also called Ho Ab S298_03V; S298V) heavy: not shown light: DIVMTQSPLSLPVTPGEPASISCQASESLVHSNRNTYLHWYLQKPGQSPQLLIYKVSNRFSGVPDRFSGSGSGTDFTLKISRVEAEDVGVYYCSQNTHVPPTFGQGTKVEIERTVAAPSVFIFPPSDEQLKSGTASVVCLLNNFYPREAKVQWKVDNALQSGNSQESVTEQDSKDSTYSLSSTLTLSKADYEKHKVYACEVTHQGLSSPVTKSFNRGEC
104 % of HoCon Ab (=100) | GpH7-B3 variant S298_18N/GpL16-k0 (antibody, human IgG1, kappa, mutation in both H chains; also called Ho Ab S298_18N; S298N) heavy: not shown light: DIVMTQSPLSLPVTPGEPASISCQASESLVHSNRNTYLHWYLQKPGQSPQLLIYKVSNRFSGVPDRFSGSGSGTDFTLKISRVEAEDVGVYYCSQNTHVPPTFGQGTKVEIERTVAAPSVFIFPPSDEQLKSGTASVVCLLNNFYPREAKVQWKVDNALQSGNSQESVTEQDSKDSTYSLSSTLTLSKADYEKHKVYACEVTHQGLSSPVTKSFNRGEC
106 % of HoCon Ab (=100) | GpH7-B3 variant S298_02A/GpL16-k0 (antibody, human IgG1, kappa, mutation in both H chains; also called Ho Ab S298_02A; S298A) heavy: not shown light: DIVMTQSPLSLPVTPGEPASISCQASESLVHSNRNTYLHWYLQKPGQSPQLLIYKVSNRFSGVPDRFSGSGSGTDFTLKISRVEAEDVGVYYCSQNTHVPPTFGQGTKVEIERTVAAPSVFIFPPSDEQLKSGTASVVCLLNNFYPREAKVQWKVDNALQSGNSQESVTEQDSKDSTYSLSSTLTLSKADYEKHKVYACEVTHQGLSSPVTKSFNRGEC
103 % of HoCon Ab (=100) | GpH7-B3 variant S324_03V/GpL16-k0 (antibody, human IgG1, kappa, mutation in both H chains; also called Ho Ab S324_03V; S324V) heavy: not shown light: DIVMTQSPLSLPVTPGEPASISCQASESLVHSNRNTYLHWYLQKPGQSPQLLIYKVSNRFSGVPDRFSGSGSGTDFTLKISRVEAEDVGVYYCSQNTHVPPTFGQGTKVEIERTVAAPSVFIFPPSDEQLKSGTASVVCLLNNFYPREAKVQWKVDNALQSGNSQESVTEQDSKDSTYSLSSTLTLSKADYEKHKVYACEVTHQGLSSPVTKSFNRGEC
105 % of HoCon Ab (=100) | GpH7-B3 variant S298_19Q/GpL16-k0 (antibody, human IgG1, kappa, mutation in both H chains; also called Ho Ab S298_19Q; S298Q) heavy: not shown light: DIVMTQSPLSLPVTPGEPASISCQASESLVHSNRNTYLHWYLQKPGQSPQLLIYKVSNRFSGVPDRFSGSGSGTDFTLKISRVEAEDVGVYYCSQNTHVPPTFGQGTKVEIERTVAAPSVFIFPPSDEQLKSGTASVVCLLNNFYPREAKVQWKVDNALQSGNSQESVTEQDSKDSTYSLSSTLTLSKADYEKHKVYACEVTHQGLSSPVTKSFNRGEC
94.5 % of HoCon Ab (=100) | GpH7-B3 variant S298_12R/GpL16-k0 (antibody, human IgG1, kappa, mutation in both H chains; also called Ho Ab S298_12R; S298R) heavy: not shown light: DIVMTQSPLSLPVTPGEPASISCQASESLVHSNRNTYLHWYLQKPGQSPQLLIYKVSNRFSGVPDRFSGSGSGTDFTLKISRVEAEDVGVYYCSQNTHVPPTFGQGTKVEIERTVAAPSVFIFPPSDEQLKSGTASVVCLLNNFYPREAKVQWKVDNALQSGNSQESVTEQDSKDSTYSLSSTLTLSKADYEKHKVYACEVTHQGLSSPVTKSFNRGEC
103 % of HoCon Ab (=100) | GpH7-B3 variant S298_07I/GpL16-k0 (antibody, human IgG1, kappa, mutation in both H chains; also called Ho Ab S298_07I; S298I) heavy: not shown light: DIVMTQSPLSLPVTPGEPASISCQASESLVHSNRNTYLHWYLQKPGQSPQLLIYKVSNRFSGVPDRFSGSGSGTDFTLKISRVEAEDVGVYYCSQNTHVPPTFGQGTKVEIERTVAAPSVFIFPPSDEQLKSGTASVVCLLNNFYPREAKVQWKVDNALQSGNSQESVTEQDSKDSTYSLSSTLTLSKADYEKHKVYACEVTHQGLSSPVTKSFNRGEC
103 % of HoCon Ab (=100) | GpH7-B3 variant S324_08L/GpL16-k0 (antibody, human IgG1, kappa, mutation in both H chains; also called Ho Ab S324_08L; S324L) heavy: not shown light: DIVMTQSPLSLPVTPGEPASISCQASESLVHSNRNTYLHWYLQKPGQSPQLLIYKVSNRFSGVPDRFSGSGSGTDFTLKISRVEAEDVGVYYCSQNTHVPPTFGQGTKVEIERTVAAPSVFIFPPSDEQLKSGTASVVCLLNNFYPREAKVQWKVDNALQSGNSQESVTEQDSKDSTYSLSSTLTLSKADYEKHKVYACEVTHQGLSSPVTKSFNRGEC
103 % of HoCon Ab (=100) | GpH7-B3 variant S298_15Y/GpL16-k0 (antibody, human IgG1, kappa, mutation in both H chains; also called Ho Ab S298_15Y; S298Y) heavy: not shown light: DIVMTQSPLSLPVTPGEPASISCQASESLVHSNRNTYLHWYLQKPGQSPQLLIYKVSNRFSGVPDRFSGSGSGTDFTLKISRVEAEDVGVYYCSQNTHVPPTFGQGTKVEIERTVAAPSVFIFPPSDEQLKSGTASVVCLLNNFYPREAKVQWKVDNALQSGNSQESVTEQDSKDSTYSLSSTLTLSKADYEKHKVYACEVTHQGLSSPVTKSFNRGEC
100 % of HoCon Ab (=100) | GpH7-B3 variant S324_11K/GpL16-k0 (antibody, human IgG1, kappa, mutation in both H chains; also called Ho Ab S324_11K; S324K) heavy: not shown light: DIVMTQSPLSLPVTPGEPASISCQASESLVHSNRNTYLHWYLQKPGQSPQLLIYKVSNRFSGVPDRFSGSGSGTDFTLKISRVEAEDVGVYYCSQNTHVPPTFGQGTKVEIERTVAAPSVFIFPPSDEQLKSGTASVVCLLNNFYPREAKVQWKVDNALQSGNSQESVTEQDSKDSTYSLSSTLTLSKADYEKHKVYACEVTHQGLSSPVTKSFNRGEC
106 % of HoCon Ab (=100) | GpH7-B3 variant S298_10E/GpL16-k0 (antibody, human IgG1, kappa, mutation in both H chains; also called Ho Ab S298_10E; S298E) heavy: not shown light: DIVMTQSPLSLPVTPGEPASISCQASESLVHSNRNTYLHWYLQKPGQSPQLLIYKVSNRFSGVPDRFSGSGSGTDFTLKISRVEAEDVGVYYCSQNTHVPPTFGQGTKVEIERTVAAPSVFIFPPSDEQLKSGTASVVCLLNNFYPREAKVQWKVDNALQSGNSQESVTEQDSKDSTYSLSSTLTLSKADYEKHKVYACEVTHQGLSSPVTKSFNRGEC
106 % of HoCon Ab (=100) | GpH7-B3 variant S298_06M/GpL16-k0 (antibody, human IgG1, kappa, mutation in both H chains; also called Ho Ab S298_06M; S298M) heavy: not shown light: DIVMTQSPLSLPVTPGEPASISCQASESLVHSNRNTYLHWYLQKPGQSPQLLIYKVSNRFSGVPDRFSGSGSGTDFTLKISRVEAEDVGVYYCSQNTHVPPTFGQGTKVEIERTVAAPSVFIFPPSDEQLKSGTASVVCLLNNFYPREAKVQWKVDNALQSGNSQESVTEQDSKDSTYSLSSTLTLSKADYEKHKVYACEVTHQGLSSPVTKSFNRGEC
101 % of HoCon Ab (=100) | GpH7-B3 variant S324_12R/GpL16-k0 (antibody, human IgG1, kappa, mutation in both H chains; also called Ho Ab S324_12R; S324R) heavy: not shown light: DIVMTQSPLSLPVTPGEPASISCQASESLVHSNRNTYLHWYLQKPGQSPQLLIYKVSNRFSGVPDRFSGSGSGTDFTLKISRVEAEDVGVYYCSQNTHVPPTFGQGTKVEIERTVAAPSVFIFPPSDEQLKSGTASVVCLLNNFYPREAKVQWKVDNALQSGNSQESVTEQDSKDSTYSLSSTLTLSKADYEKHKVYACEVTHQGLSSPVTKSFNRGEC
103 % of HoCon Ab (=100) | GpH7-B3 variant S324_02A/GpL16-k0 (antibody, human IgG1, kappa, mutation in both H chains; also called Ho Ab S324_02A; S324A) heavy: not shown light: DIVMTQSPLSLPVTPGEPASISCQASESLVHSNRNTYLHWYLQKPGQSPQLLIYKVSNRFSGVPDRFSGSGSGTDFTLKISRVEAEDVGVYYCSQNTHVPPTFGQGTKVEIERTVAAPSVFIFPPSDEQLKSGTASVVCLLNNFYPREAKVQWKVDNALQSGNSQESVTEQDSKDSTYSLSSTLTLSKADYEKHKVYACEVTHQGLSSPVTKSFNRGEC
107 % of HoCon Ab (=100) | GpH7-B3 variant S298_04F/GpL16-k0 (antibody, human IgG1, kappa, mutation in both H chains; also called Ho Ab S298_04F; S298F) heavy: not shown light: DIVMTQSPLSLPVTPGEPASISCQASESLVHSNRNTYLHWYLQKPGQSPQLLIYKVSNRFSGVPDRFSGSGSGTDFTLKISRVEAEDVGVYYCSQNTHVPPTFGQGTKVEIERTVAAPSVFIFPPSDEQLKSGTASVVCLLNNFYPREAKVQWKVDNALQSGNSQESVTEQDSKDSTYSLSSTLTLSKADYEKHKVYACEVTHQGLSSPVTKSFNRGEC
104 % of HoCon Ab (=100) | GpH7-B3 variant S298_08L/GpL16-k0 (antibody, human IgG1, kappa, mutation in both H chains; also called Ho Ab S298_08L; S298L) heavy: not shown light: DIVMTQSPLSLPVTPGEPASISCQASESLVHSNRNTYLHWYLQKPGQSPQLLIYKVSNRFSGVPDRFSGSGSGTDFTLKISRVEAEDVGVYYCSQNTHVPPTFGQGTKVEIERTVAAPSVFIFPPSDEQLKSGTASVVCLLNNFYPREAKVQWKVDNALQSGNSQESVTEQDSKDSTYSLSSTLTLSKADYEKHKVYACEVTHQGLSSPVTKSFNRGEC
106 % of HoCon Ab (=100) | GpH7-B3 variant S298_14T/GpL16-k0 (antibody, human IgG1, kappa, mutation in both H chains; also called Ho Ab S298_14T; S298T) heavy: not shown light: DIVMTQSPLSLPVTPGEPASISCQASESLVHSNRNTYLHWYLQKPGQSPQLLIYKVSNRFSGVPDRFSGSGSGTDFTLKISRVEAEDVGVYYCSQNTHVPPTFGQGTKVEIERTVAAPSVFIFPPSDEQLKSGTASVVCLLNNFYPREAKVQWKVDNALQSGNSQESVTEQDSKDSTYSLSSTLTLSKADYEKHKVYACEVTHQGLSSPVTKSFNRGEC
107 % of HoCon Ab (=100) | GpH7-B3 variant S298_16H/GpL16-k0 (antibody, human IgG1, kappa, mutation in both H chains; also called Ho Ab S298_16H; S298H) heavy: not shown light: DIVMTQSPLSLPVTPGEPASISCQASESLVHSNRNTYLHWYLQKPGQSPQLLIYKVSNRFSGVPDRFSGSGSGTDFTLKISRVEAEDVGVYYCSQNTHVPPTFGQGTKVEIERTVAAPSVFIFPPSDEQLKSGTASVVCLLNNFYPREAKVQWKVDNALQSGNSQESVTEQDSKDSTYSLSSTLTLSKADYEKHKVYACEVTHQGLSSPVTKSFNRGEC
71.5 % of HoCon Ab (=100) | GpH7-B3 variant S298_20W/GpL16-k0 (antibody, human IgG1, kappa, mutation in both H chains; also called Ho Ab S298_20W; S298W) heavy: not shown light: DIVMTQSPLSLPVTPGEPASISCQASESLVHSNRNTYLHWYLQKPGQSPQLLIYKVSNRFSGVPDRFSGSGSGTDFTLKISRVEAEDVGVYYCSQNTHVPPTFGQGTKVEIERTVAAPSVFIFPPSDEQLKSGTASVVCLLNNFYPREAKVQWKVDNALQSGNSQESVTEQDSKDSTYSLSSTLTLSKADYEKHKVYACEVTHQGLSSPVTKSFNRGEC
